B1: humanized YP7 antibody, IgG format (human IgG1 kappa) (antibody, V domains shown)
VH: EVQLVESGGGLVQPGGSLRLSCAASGFTFNKNAMNWVRQAPGKGLEWVGRIRNKTNNYATYYADSVKARFTISRDDSKNSLYLQMNSLKTEDTAVYYCVAGNSFAYWGQGTLVTVS
VL: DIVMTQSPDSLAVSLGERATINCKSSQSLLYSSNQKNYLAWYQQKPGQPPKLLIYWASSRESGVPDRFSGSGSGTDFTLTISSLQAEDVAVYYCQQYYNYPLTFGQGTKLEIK
notes: also called hYP7; hYP7 IgG
B2: humanized YP9.1b antibody, IgG format (human IgG1 kappa) (antibody, V domains shown)
VH: EVQLVESGGGLVQPGGSLRLSCAASGFNFNTNAMNWVRQAPGKGLEWVGRVRNKTNNYATYYADSVKDRFTISRDDSKNSLYLQMNSLKTEDTAVYYCVAGNSFAYWGQGTLVTVS
VL: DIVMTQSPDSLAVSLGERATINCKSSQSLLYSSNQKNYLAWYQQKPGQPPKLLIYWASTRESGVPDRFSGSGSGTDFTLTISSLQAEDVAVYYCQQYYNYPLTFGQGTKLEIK
notes: also called hYP9.1b; hYP9.1b IgG

Molecular target: T1, Glypican-3 (GPC3) on G1 cells (Homo sapiens, UniProt P51654)
T1 construct: also called GPC3+ cells (G1)
Assay: flow cytometry on cells
Conditions: one partner purified

T1 sequence (P51654 25-580): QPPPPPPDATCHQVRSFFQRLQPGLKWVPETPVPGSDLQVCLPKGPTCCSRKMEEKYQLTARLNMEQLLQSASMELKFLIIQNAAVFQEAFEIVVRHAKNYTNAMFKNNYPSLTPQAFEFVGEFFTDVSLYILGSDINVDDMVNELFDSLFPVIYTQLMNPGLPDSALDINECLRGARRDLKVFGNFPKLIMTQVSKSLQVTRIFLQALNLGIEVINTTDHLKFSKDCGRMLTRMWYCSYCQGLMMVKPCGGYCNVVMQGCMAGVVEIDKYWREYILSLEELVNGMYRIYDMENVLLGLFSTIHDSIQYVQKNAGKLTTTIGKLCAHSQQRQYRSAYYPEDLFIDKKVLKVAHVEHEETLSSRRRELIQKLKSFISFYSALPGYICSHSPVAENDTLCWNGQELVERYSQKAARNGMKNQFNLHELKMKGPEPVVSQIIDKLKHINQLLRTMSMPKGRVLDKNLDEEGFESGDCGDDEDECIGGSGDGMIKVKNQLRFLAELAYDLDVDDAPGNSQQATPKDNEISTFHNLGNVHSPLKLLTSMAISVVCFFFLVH

Binder	EC50
B1	0.7 nM
B2	0.4 nM

Reference: article PMC5036187 (Scientific Reports, 2016)
